The record followed here is publication PMC3709441 (The Biochemical journal, 2009).

Common to all, as to assay: ELISA
For orientation: An ELISA detects its analyte on a solid surface through an enzyme-linked reagent.

In assay [1] the target is RnPP5 TPR R117A (rat).
In assay [2] the target is RnPP5 TPR E29A (rat).
The target in assay [3] is RnPP5 TPR E56A (rat).
For assay [4], the target named is RnPP5 TPR E76A (rat).
Assay [5] concerns the target RnPP5 TPR R113A (rat).
Assay [6] addresses RnPP5 TPR Y80A (rat).
In assay [7] the target is HsHop TPR2B (amino acids 353-477) (human, UniProt P31948 353-477).
Assay [8] deals with RnPP5 TPR K40A (rat).
In assay [9] the target is RnPP5 TPR R74A (rat).
Assay [10] deals with T1, RnPP5 TPR wild type (rat protein phosphatase 5 TPR domain) (rat).
T1 sequence (P53042 whole entry, looked up): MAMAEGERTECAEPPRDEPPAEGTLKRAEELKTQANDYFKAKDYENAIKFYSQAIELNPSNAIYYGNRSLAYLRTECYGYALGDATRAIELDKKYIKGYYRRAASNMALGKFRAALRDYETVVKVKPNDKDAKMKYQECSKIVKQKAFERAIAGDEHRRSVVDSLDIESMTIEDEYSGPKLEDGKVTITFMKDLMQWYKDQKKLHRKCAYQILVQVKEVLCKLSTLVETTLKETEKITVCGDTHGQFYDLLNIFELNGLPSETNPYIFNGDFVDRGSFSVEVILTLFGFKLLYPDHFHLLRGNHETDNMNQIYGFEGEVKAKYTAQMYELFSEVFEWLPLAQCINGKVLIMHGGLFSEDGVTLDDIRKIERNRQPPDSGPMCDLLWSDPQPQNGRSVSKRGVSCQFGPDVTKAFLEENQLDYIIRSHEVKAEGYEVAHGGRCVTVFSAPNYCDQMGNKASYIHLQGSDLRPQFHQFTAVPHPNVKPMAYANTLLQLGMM

The target in assay [11] is RnPP5 TPR I63A (rat).
Assay [12] has as its target RnPP5 TPR R101A (rat).
The target of assay [13] is HsHop TPR1 (amino acids 1-118) (human, UniProt P31948 1-118).
The target in assay [14] is T2, HsPP5 TPR (human protein phosphatase 5 TPR domain, amino acids 1-181) (human, UniProt P53041 1-181).
T2 sequence (looked up): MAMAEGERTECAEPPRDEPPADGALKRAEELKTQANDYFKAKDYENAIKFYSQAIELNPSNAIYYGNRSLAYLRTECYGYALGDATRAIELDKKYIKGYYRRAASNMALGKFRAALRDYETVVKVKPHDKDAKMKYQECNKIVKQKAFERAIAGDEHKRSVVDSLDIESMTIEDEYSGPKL

Assay [15] addresses HsHop TPR2A (amino acids 223-352) (human, UniProt P31948 223-352).
The target of assay [16] is RnPP5 TPR K32A (rat).

HsHop TPR2B (amino acids 353-477), sequence (P31948 353-477): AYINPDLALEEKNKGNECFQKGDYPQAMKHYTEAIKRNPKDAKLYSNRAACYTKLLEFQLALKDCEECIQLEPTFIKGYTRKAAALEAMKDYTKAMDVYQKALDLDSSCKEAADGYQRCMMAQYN
HsHop TPR2A (amino acids 223-352), sequence (P31948 223-352): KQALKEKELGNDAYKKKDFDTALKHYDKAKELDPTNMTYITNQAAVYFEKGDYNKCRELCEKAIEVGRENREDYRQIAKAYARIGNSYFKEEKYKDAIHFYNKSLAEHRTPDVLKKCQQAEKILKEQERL
HsHop TPR1 (amino acids 1-118), sequence (P31948 1-118): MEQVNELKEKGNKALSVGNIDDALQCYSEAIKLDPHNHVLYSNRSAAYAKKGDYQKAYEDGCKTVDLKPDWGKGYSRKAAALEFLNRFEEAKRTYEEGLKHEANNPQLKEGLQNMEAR

Turning to “hsp90 C-12 control phage, displayed peptide … (the 12 residues located at the C-terminus of hsp90)”, the A405 (ELISA) (absorbance at 405 nm) in [1] came to 1.06; in [2], 1.06; in assay [3] it was 1.08; in [4] it was 1.12; in assay [5] it was 0.72; in assay [6], 1.09.

Consider GDDDTSRMEEVD, for which the “A405 (ELISA)” value in assay [7] was found to be 0.24 absorbance at 405 nm.

As for RFQQMNQSWDVD [T7 phage #1 (VD phage #1), displayed peptide …], the A405 (ELISA) (absorbance at 405 nm) in assay [1] is 1; in assay [8], 1.01; in assay [9], 0.75; in assay [5], 0.84; in [6], 1.08; in [10] it was 1.14. This molecule registered an A405 (ELISA) (absorbance at 405 nm) in assay [11] of 0.84.

With KHTVADDELLFG [LFG phage #2, displayed peptide …], the A405 (ELISA) (absorbance at 405 nm) is 0.78 in [1]; 0.75 in [9]; 0.75 in [2]; 0.54 in assay [12]; 0.74 in assay [5].

NAHLRLEMNDVD [T7 phage #7 (VD phage with a -4 methionine), displayed peptide NAHLRLEMNDVD]: the “A405 (ELISA)” value in [13] was 0.32 absorbance at 405 nm; in assay [14], 0.56 absorbance at 405 nm; in assay [15], 0.04 absorbance at 405 nm.

As for RLLSADDDVLFG [LFG phage #1, displayed peptide …], the A405 (ELISA) (absorbance at 405 nm) in assay [1] was determined as 0.8; in assay [3] it was 0.78; in [12], 0.53; in assay [5], 0.66; in assay [16], 0.74.
